These results are taken from article PMC3115021, “Dynamics of Cdk1 Substrate Specificity during the Cell Cycle” (Molecular Cell, 2011).

The labels stand for the following.
B1: CDH1: protein purified using the baculovirus system, tested as Cdk1 substrate (protein, UniProt P53197 1-566, looked up)
APC/C activator protein CDH1: MSTNLNPFMNNTPSSSPLKGSESKRVSKRPISSSSSASLLSSPSRRSRPSTVYGDRYIPSRTDIDFNSIVSISSMASVPALNPSSTEDQVEYQKERQAHETYNTLLKNELFGEMLSKDTVGSESSIDRIKNTRPSTRGNVHAENTTRHGYELERVSTPPPEAAGLEEFSPHSTPVTPRRLFTSQQDEITRPSSNSVRGASLLTYQQRKGRRLSAASLLQSQFFDSMSPVRPDSKQLLLSPGKQFRQIAKVPYRVLDAPSLADDFYYSLIDWSSTDVLAVALGKSIFLTDNNTGDVVHLCDTENEYTSLSWIGAGSHLAVGQANGLVEIYDVMKRKCIRTLSGHIDRVACLSWNNHVLTSGSRDHRILHRDVRMPDPFFETIESHTQEVCGLKWNVADNKLASGGNDNVVHVYEGTSKSPILTFDEHKAAVKAMAWSPHKRGVLATGGGTADRRLKIWNVNTSIKMSDIDSGSQICNMVWSKNTNELVTSHGYSKYNLTLWDCNSMDPIAILKGHSFRVLHLTLSNDGTTVVSGAGDETLRYWKLFDKPKAKVQPNSLIFDAFNQIR
B2: FAR1: Cdk1 inhibitor Far1, tested as Cdk1 substrate (protein, UniProt P21268 1-830, looked up)
Cyclin-dependent kinase …: MKTPTRVSFEKKIHTPPSGDRDAERSPPKKFLRGLSGKVFRKTPEFKKQQMPTFGYIEESQFTPNLGLMMSKRGNIPKPLNLSKPISPPPSLKKTAGSVASGFSKTGQLSALQSPVNITSSNKYNIKATNLTTSLLRESISDSTTMCDTLSDINLTVMDEDYRIDGDSYYEEDSPTFMISLERNIKKCNSQFSPKRYIGEKCLICEESISSTFTGEKVVESTCSHTSHYNCYLMLFETLYFQGKFPECKICGEVSKPKDKDIVPEMVSKLLTGAGAHDDGPSSNMQQQWIDLKTARSFTGEFPQFTPQEQLIRTADISCDGFRTPRLSNSNQFEAVSYLDSPFLNSPFVNKMATTDPFDLSDDEKLDCDDEIDESAAEVWFSKTGGEHVMVSVKFQEMRTSDDLGVLQDVNHVDHEELEEREKEWKKKIDQYIETNVDKDSEFGSLILFDKLMYSDDGEQWVDNNLVILFSKFLVLFDFEEMKILGKIPRDQFYQVIKFNEDVLLCSLKSTNIPEIYLRFNENCEKWLLPKWKYCLENSSLETLPLSEIVSTVKELSHVNIIGALGAPPDVISAQSHDSRLPWKRLHSDTPLKLIVCLNLSHADGELYRKRVLKSVHQILDGLNTDDLLGIVVVGRDGSGVVGPFGTFIGMINKNWDGWTTFLDNLEVVNPNVFRDEKQQYKVTLQTCERLASTSAYVDTDDHIATGYAKQILVLNGSDVVDIEHDQKLKKAFDQLSYHWRYEISQRRMTPLNASIKQFLEELHTKRYLDVTLRLPQATFEQVYLGDMAAGEQKTRLIMDEHPHSSLIEIEYFDLVKQQRIHQTLEVPNL
B3: CDC6: replication factor and pre-RC component, tested as Cdk1 substrate (protein, UniProt P09119 1-513, looked up)
Cell division control protein …: MSAIPITPTKRIRRNLFDDAPATPPRPLKRKKLQFTDVTPESSPEKLQFGSQSIFLRTKALLQKSSELVNLNSSDGALPARTAEYEQVMNFLAKAISEHRSDSLYITGPPGTGKTAQLDMIIRQKFQSLPLSLSTPRSKDVLRHTNPNLQNLSWFELPDGRLESVAVTSINCISLGEPSSIFQKIFDSFQDLNGPTLQIKNMQHLQKFLEPYHKKTTFVVVLDEMDRLLHANTSETQSVRTILELFLLAKLPTVSFVLIGMANSLDMKDRFLSRLNLDRGLLPQTIVFQPYTAEQMYEIVIQKMSSLPTIIFQPMAIKFAAKKCAGNTGDLRKLFDVLRGSIEIYELEKRFLLSPTRGSLNSAQVPLTPTTSPVKKSYPEPQGKIGLNYIAKVFSKFVNNNSTRTRIAKLNIQQKLILCTIIQSLKLNSDATIDESFDHYIKAITKTDTLAPLQRNEFLEICTILETCGLVSIKKTKCKGKTKRFVDKIDVDLDMREFYDEMTKISILKPFLH
B4: FIN1: spindle-stabilizing protein, tested as Cdk1 substrate (protein, UniProt Q03898 1-291, looked up)
Filament protein FIN1: MSNKSNRRSLRDIGNTIGRNNIPSDKDNVFVRLSMSPLRTTSQKEFLKPPMRISPNKTDGMKHSIQVTPRRIMSPECLKGYVSKETQSLDRPQFKNSNKNVKIQNSDHITNIIFPTSPTKLTFSNENKIGGDGSLTRIRARFKNGLMSPERIQQQQQQHILPSDAKSNTDLCSNTELKDAPFENDLPRAKLKGKNLLVELKKEEEDVGNGIESLTKSNTKLNSMLANEGKIHKASFQKSVKFKLPDNIVTEETVELKEIKDLLLQMLRRQREIESRLSNIELQLTEIPKHK
B5: EXO84: purified yeast protein tested as Cdk1 substrate (protein, UniProt P38261 1-753, looked up)
Exocyst complex component …: MVEFSLKKARNNWKHVKKSASSPAKQKTPPSPAKPKQKTKKNPYSDLKDPATSYTLPTINARERSRVATSMQRRLSIHNTNYAPPTLDYSMPLPDMPNMIVPNDNVDSSHNNSSFTTENESVSSKGPSNSLNLSTADLSLNDSSYNKVPARSAMRNTVNPSGSNDPFNNSTSLRKMLANPHFNAKDFVHDKLGNASAITIDKFTSNLTDLSIQVQEEVKLNINKSYNEIMTVNNDLNVAMLELKRVRANINDLNEVLDQCTKIAEKRLQLQDQIDQERQGNFNNVESHSNSPALLPPLKAGQNGNLMRRDRSSVLILEKFWDTELDQLFKNVEGAQKFINSTKGRHILMNSANWMELNTTTGKPLQMVQIFILNDLVLIADKSRDKQNDFIVSQCYPLKDVTVTQEEFSTKRLLFKFSNSNSSLYECRDADECSRLLDVIRKAKDDLCDIFHVEEENSKRIRESFRYLQSTQQTPGRENNRSPNKNKRRSMGGSITPGRNVTGAMDQYLLQNLTLSMHSRPRSRDMSSTAQRLKFLDEGVEEIDIELARLRFESAVETLLDIESQLEDLSERISDEELMLLNLISLKIEQRREAISSKLSQSILSSNEIVHLKSGTENMIKLGLPEQALDLFLQNRSNFIQDLILQIGSVDNPTNYLTQLAVIRFQTIKKTVEDFQDIFKELGAKISSILVDWCSDEVDNHFKLIDKQLLNDEMLSPGSIKSSRKQIDGLKAVGLDFVYKLDEFIKKNSDKIR

T6 sequence (P00546 2-298 limits assumed): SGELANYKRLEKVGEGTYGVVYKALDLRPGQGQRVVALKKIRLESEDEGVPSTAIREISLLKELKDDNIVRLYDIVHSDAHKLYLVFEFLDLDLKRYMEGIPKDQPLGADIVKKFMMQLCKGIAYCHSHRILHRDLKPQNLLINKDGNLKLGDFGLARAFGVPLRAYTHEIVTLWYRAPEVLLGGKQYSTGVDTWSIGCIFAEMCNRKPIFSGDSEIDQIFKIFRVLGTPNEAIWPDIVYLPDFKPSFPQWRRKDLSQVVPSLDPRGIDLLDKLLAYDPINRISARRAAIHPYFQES
T6 sequence (P30283 whole entry partner): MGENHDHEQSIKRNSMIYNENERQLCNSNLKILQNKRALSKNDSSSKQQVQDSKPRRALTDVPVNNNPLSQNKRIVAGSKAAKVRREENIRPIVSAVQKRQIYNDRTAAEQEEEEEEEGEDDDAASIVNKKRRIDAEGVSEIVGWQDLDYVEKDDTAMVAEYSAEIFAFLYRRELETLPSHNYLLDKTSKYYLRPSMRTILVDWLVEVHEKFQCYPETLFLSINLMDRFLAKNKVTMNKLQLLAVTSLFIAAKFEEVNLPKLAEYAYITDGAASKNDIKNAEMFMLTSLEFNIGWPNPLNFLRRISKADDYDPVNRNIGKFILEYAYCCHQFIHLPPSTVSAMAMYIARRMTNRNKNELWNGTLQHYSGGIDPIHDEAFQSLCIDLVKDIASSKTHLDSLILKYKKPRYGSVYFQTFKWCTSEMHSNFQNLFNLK
T6 sequence (P20486 whole entry partner): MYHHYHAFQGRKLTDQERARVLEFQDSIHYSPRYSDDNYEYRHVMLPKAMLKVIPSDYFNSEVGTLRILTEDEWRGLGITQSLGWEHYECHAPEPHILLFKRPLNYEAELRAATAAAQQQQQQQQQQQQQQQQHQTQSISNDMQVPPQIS

For the first data set, the target named is T1, Clb5hpm-Cdk1 (Saccharomyces cerevisiae, UniProt P00546).
T1 construct: made in house; host or cells: S. cerevisiae strain DOM0963 (gal-CLB5hpm-TAP, sic1 deleted); Cks1 from bacteria
T1 sequence (P00546 2-298 limits assumed): as the sequence (P00546 2-298 limits assumed) above
Put plainly: Quantitative phosphorylation assay of T33-Sic1ΔC constructs and recombinant substrates. The class given is biochemical. To be noted: Table S2; purified protein substrate; relative values, not divided by [S]. In outline: (§1)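 Yeast cyclin-Cdk1 complexes (1–10 nM, TAP-purified) phosphorylated 6His-T33-Sic1ΔC (other S/T-P sites mutated to Ala-Ala) or recombinant substrates at 0.5–2 μM, below KM, with 32P-γ-ATP. Initial velocities (≤10% turnover) from two or more time points, SDS-PAGE stopped; relative kcat/KM from v0 ratios.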
Regarding B1, the “kcat/KM, Clb5hpm” value was 0.006 relative units.

With B2, the “kcat/KM, Clb5hpm” value stood at 0.003 relative units.

Consider B3, for which the “kcat/KM, Clb5hpm” value is 0.138 relative units.

B4: the “kcat/KM, Clb5hpm” value was found to be 3.651 relative units.

Turning to B5, the “kcat/KM, Clb5hpm” value turned out to be 0.006 relative units.

The target in another data set is T2, Clb3hpm-Cdk1 (Saccharomyces cerevisiae, UniProt P00546+P24870).
T2 construct: made in house; host or cells: S. cerevisiae strain MK0168 (gal-CLB3hpm-TAP, sic1 deleted); Cks1 from bacteria
Described as above. The note with it: Table S2; purified protein substrate; relative values, not divided by [S]. The class given is biochemical. In outline: as §1
In the case of B1, the “kcat/KM, Clb3hpm” value came to 0.008 relative units.

Consider B2, for which the “kcat/KM, Clb3hpm” value is on record as 0.008 relative units.

With B3, the “kcat/KM, Clb3hpm” value is 0.350 relative units.

As to B4, the “kcat/KM, Clb3hpm” value is recorded as 7.488 relative units.

Take B5: the “kcat/KM, Clb3hpm” value came to 0.014 relative units.

For another data set, the target named is T3, Clb2hpm-Cdk1 (Saccharomyces cerevisiae, UniProt P00546).
T3 construct: made in house; host or cells: S. cerevisiae strain DOM0964 (gal-CLB2hpm-TAP, sic1 deleted); Cks1 from bacteria
T3 sequence (P00546 2-298 limits assumed): as above
Described as above. The note with it: Table S2; purified protein substrate; relative values, not divided by [S]. The format is biochemical. In outline: as §1
Take B1: the “kcat/KM, Clb2hpm” value is 0.023 relative units.

Take B2: the “kcat/KM, Clb2hpm” value was 0.033 relative units.

With B3, the “kcat/KM, Clb2hpm” value was 1.688 relative units.

With B4, the “kcat/KM, Clb2hpm” value is on record as 14.08 relative units.

As for B5, the “kcat/KM, Clb2hpm” value was 0.062 relative units.

For a further data set, the target named is T4, Cln2-Cdk1 (Saccharomyces cerevisiae, UniProt P00546+P20438).
T4 construct: We purified the four cyclin-Cdk1 complexes from yeast; made in house; host or cells: S. cerevisiae strain DMY305 (galactose-induced); Cks1 from bacteria
T4 sequence (P00546 2-298 limits assumed): as above
T4 sequence (P20438 whole entry partner): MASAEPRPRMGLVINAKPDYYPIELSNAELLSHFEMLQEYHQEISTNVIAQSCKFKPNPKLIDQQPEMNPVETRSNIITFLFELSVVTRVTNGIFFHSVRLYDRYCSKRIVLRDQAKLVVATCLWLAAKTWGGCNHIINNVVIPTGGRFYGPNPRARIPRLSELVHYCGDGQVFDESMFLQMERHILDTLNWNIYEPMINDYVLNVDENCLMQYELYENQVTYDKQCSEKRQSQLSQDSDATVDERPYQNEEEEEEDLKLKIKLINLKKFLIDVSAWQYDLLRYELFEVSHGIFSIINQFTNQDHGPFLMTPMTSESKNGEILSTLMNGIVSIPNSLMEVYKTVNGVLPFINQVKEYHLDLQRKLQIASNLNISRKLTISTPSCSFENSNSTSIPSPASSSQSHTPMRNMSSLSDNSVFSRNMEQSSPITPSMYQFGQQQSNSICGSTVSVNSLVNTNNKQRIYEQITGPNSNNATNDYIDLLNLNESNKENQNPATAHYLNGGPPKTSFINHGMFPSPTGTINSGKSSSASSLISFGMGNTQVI
T4 sequence (P20486 whole entry partner): as the sequence (P20486 whole entry partner) above
The data set is described as above. The format is biochemical. The note with it: Table S2; purified protein substrate; relative values, not divided by [S].
Take B1: the “kcat/KM, Cln2” value is given as 0.016 relative units.

Turning to B2, the “kcat/KM, Cln2” value stood at 0.042 relative units.

For B3, the “kcat/KM, Cln2” value was found to be 0.084 relative units.

In the case of B4, the “kcat/KM, Cln2” value was found to be 1.800 relative units.

In the case of B5, the “kcat/KM, Cln2” value is recorded as 0.084 relative units.

The target in another data set is T5, Clb3-Cdk1 (Saccharomyces cerevisiae, UniProt P00546+P24870).
T5 construct: We purified the four cyclin-Cdk1 complexes from yeast; made in house; host or cells: S. cerevisiae strain DOM0957 (gal-CLB3-TAP, sic1 deleted); Cks1 from bacteria
T5 sequence (P00546 2-298 limits assumed): as the sequence (P00546 2-298 limits assumed) above
T5 sequence (P24870 whole entry partner): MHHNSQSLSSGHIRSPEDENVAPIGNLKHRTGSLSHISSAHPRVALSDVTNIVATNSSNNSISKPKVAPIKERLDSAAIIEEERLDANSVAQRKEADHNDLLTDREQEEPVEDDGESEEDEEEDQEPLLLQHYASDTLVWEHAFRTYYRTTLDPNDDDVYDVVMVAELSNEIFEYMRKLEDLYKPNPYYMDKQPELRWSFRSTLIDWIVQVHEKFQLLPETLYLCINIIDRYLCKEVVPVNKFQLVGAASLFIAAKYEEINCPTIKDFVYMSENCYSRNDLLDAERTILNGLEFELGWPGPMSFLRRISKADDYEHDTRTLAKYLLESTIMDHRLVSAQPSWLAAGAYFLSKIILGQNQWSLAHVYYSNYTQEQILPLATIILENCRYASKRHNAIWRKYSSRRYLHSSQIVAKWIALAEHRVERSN
T5 sequence (P20486 whole entry partner): as the sequence (P20486 whole entry partner) above
The description is as above. The class given is biochemical. To be noted: Table S2; purified protein substrate; relative values, not divided by [S].
Turning to B1, the “kcat/KM, Clb3” value was found to be 0.024 relative units.

Regarding B2, the “kcat/KM, Clb3” value was determined as 0.031 relative units.

Consider B3, for which the “kcat/KM, Clb3” value came out at 2.268 relative units.

Turning to B4, the “kcat/KM, Clb3” value came out at 10.96 relative units.

For B5, the “kcat/KM, Clb3” value turned out to be 0.031 relative units.

The next data set concerns the target T6, Clb5-Cdk1 (Saccharomyces cerevisiae, UniProt P00546+P30283).
T6 construct: We purified the four cyclin-Cdk1 complexes from yeast; made in house; host or cells: S. cerevisiae strain DOM0076 (gal-CLB5-TAP, sic1 deleted); Cks1 from bacteria
The description is as above. The class given is biochemical. To be noted: Table S2; purified protein substrate; relative values, not divided by [S].
On to B1, for which the “kcat/KM, Clb5” value is given as 0.025 relative units.

As to B2, the “kcat/KM, Clb5” value is given as 0.115 relative units.

Take B3: the “kcat/KM, Clb5” value came out at 2.898 relative units.

Regarding B4, the “kcat/KM, Clb5” value is recorded as 23.02 relative units.

On to B5, for which the “kcat/KM, Clb5” value turned out to be 0.019 relative units.

For another data set, the target named is T7, Clb2-Cdk1 (Saccharomyces cerevisiae, UniProt P00546+P24869).
T7 construct: We purified the four cyclin-Cdk1 complexes from yeast; made in house; host or cells: S. cerevisiae strain DOM0077 (gal-CLB2-TAP, sic1 deleted); Cks1 from bacteria
T7 sequence (P00546 2-298 limits assumed): as the sequence (P00546 2-298 limits assumed) above
T7 sequence (P24869 2-491 partner limits assumed): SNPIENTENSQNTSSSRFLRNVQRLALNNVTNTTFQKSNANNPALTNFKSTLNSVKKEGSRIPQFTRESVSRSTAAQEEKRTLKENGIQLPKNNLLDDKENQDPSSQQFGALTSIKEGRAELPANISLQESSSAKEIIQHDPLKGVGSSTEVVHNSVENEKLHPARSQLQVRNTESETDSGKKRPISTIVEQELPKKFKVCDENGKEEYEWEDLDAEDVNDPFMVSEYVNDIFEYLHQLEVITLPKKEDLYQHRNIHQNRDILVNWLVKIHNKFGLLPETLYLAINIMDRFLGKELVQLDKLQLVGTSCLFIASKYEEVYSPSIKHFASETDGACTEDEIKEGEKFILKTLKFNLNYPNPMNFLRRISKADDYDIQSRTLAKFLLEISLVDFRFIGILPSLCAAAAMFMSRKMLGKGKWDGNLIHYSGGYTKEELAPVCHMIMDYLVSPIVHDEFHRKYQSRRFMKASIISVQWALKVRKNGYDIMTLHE
T7 sequence (P20486 whole entry partner): as the sequence (P20486 whole entry partner) above
The data set is described as above. The format is biochemical. To be noted: Table S2; purified protein substrate; relative values, not divided by [S].
In the case of B1, the “kcat/KM, Clb2” value is 0.035 relative units.

As for B2, the “kcat/KM, Clb2” value is reported as 0.029 relative units.

With B3, the “kcat/KM, Clb2” value is on record as 0.078 relative units.

Take B4: the “kcat/KM, Clb2” value is recorded as 12.43 relative units.

On to B5, for which the “kcat/KM, Clb2” value worked out at 0.074 relative units.
